For this test, the target named is PELI1 (UniProt Q96FA3). In words: anti-Flag co-immunoprecipitation, immunoblot. Conditions: reference: wild type; sites T382.

As for HPD (from UniProt P32754) T382A, the “binding against the reference” value is given as “lost”.

The values are drawn from publication PMC6753076.
